From US20220401560A1, “PEPTIDE ENCAPSULATING FERRITIN” (Ajinomoto Co., Inc., priority 2019, published 2022)
No end group written: not given here.

Tests used:
[1] = target: T1, ferritin (FTH) (Homo sapiens, UniProt P02794); test: Encapsulation of fluorescent dye-modified peptide into FTH, column chromatography with absorbance at 480 nm and LC-MS
T1 construct: made in house; host or cells: Escherichia coli BL21 (DE3), plasmid pET20-FTH
Description: Of a 50 mM glycine hydrochloride buffer (pH 2.3) that contains FTH (chemical formula weight: 509,421) at a final concentration of 5 mg/mL and the peptide at a final concentration of 0.5 mM, 0.5 mL was left to stand at room temperature for 15 minutes. Next, 50 μL of a 1 M Tris hydrochloride buffer (pH 9.0) was added for neutralization, and the resulting solution was left to stand at room temperature for 3 hours. After the standing, the resulting solution was centrifuged (at 15,000 rpm for one minute). Then, the supernatant was collected and the volume was increased up to 3 mL with a 10 mM Tris hydrochloride buffer (pH 8). The resulting solution was injected into the HiPrep 26/60 Sephacryl S-300 HR column (GE Healthcare Inc.) equilibrated with a 10 mM Tris-HCl buffer (pH 8.0) to separate and purify 24-mer FTH by size at a flow rate of 1.3 mL/minute. The purified ferritin was analyzed using a HiPrep 16/60 Sephacryl S-300 HR column (GE Healthcare Inc.) equilibrated with a 10 mM Tris-HCl buffer (pH 8.0) at a flow rate of 0.5 mL/minute and confirmed as the absorbance at 480 nm unobservable from FTH only, at the same position as that of a peak of FTH.
The solution containing the FTH was concentrated to 0.25 mL by centrifugal ultrafiltration using Vivaspin 20-100K (GE Healthcare Inc.). […] For the LC-MS analysis, 50 μL of a 1 M glycine hydrochloride buffer (pH 2.3) was added to 50 μL of the sample solution and then the resulting solution was left to stand at room temperature for 15 minutes. To the solution 900 μL of ethanol was added. Next, the resulting solution was stirred vigorously and then centrifuged (at 15,000 rpm for five minutes) to collect its supernatant. The supernatant was analyzed using LCMS-2020 (Shimadzu Corporation) as LC-MS, inertsil (Registered trademark) ODS-3 with a particle diameter of 2 μm and 2.1 mm×50 mm (GL science) as a column. Into the column, 10 μL of the sample was injected, and eluded at a flow rate of 0.2 mL/min for 10 minutes such that a mixing ratio of a solution A (0.1% formic acid/99.9% acetonitrile) and a solution B (50% water/50% acetonitrile) was from 95:5 to 95:5. The concentration of the contained protein was determined using a protein assay CBB solution (Nacalai Tesque, Inc.) in terms of bovine albumin as a standard. The concentration of the encapsulated peptide was determined based on the absorbance at 480 nm of the fluorescent dye FAM to which PKC-F is modified.
First, the construction of FTH encapsulating two kinds of fluorescent dye-modified peptides [5(6)—FAM-[…] (SEQ ID NO: 10), FAM-SV40, chemical formula weight 1,516, and 5(6)—FAM-[…] […] (SEQ ID NO: 11), FAN-Np, chemical formula weight 384] was attempted. 0.5 mL of a 50 mM glycine hydrochloride buffer (pH 2.3) that contains FTH (chemical formula weight 509,421) at a final concentration of 5 mg/mL and a peptide at a final concentration of 0.5 mM, was left to stand at room temperature for 15 minutes. Next, 50 μL of a 1 M Tris hydrochloride buffer (pH 9.0) was added for neutralization, and the resulting solution was left to stand at room temperature for 3 hours. […] The absorbance at […] was confirmed at the same elusion position as that of ferritin 24-mer, for ferritin that was used for the operation to encapsulate FAM-SV40 therein. […] Next, the peptide amount of FAM-SV40 encapsulated in purified ferritin was quantified based on the 480 nm absorbance and by CBB staining with use of ferritin-amount-albumin as a standard.

[2] = target: T1, ferritin (FTH); test: Search for peptides capable of being encapsulated into ferritin by disassembly/reassembly process, LC-MS detection; conditions: encapsulation into ferritin (FTH); three trials
Description: Peptides capable of being encapsulated into ferritin by disassembly/reassembly process were searched. In the disassembly/reassembly process, 1 mL of a 50 mM glycine hydrochloride buffer (pH 2.3) containing FTH at a final concentration of 5 mg/mL and the peptide at a final concentration of 0.5 mM, was left to stand at room temperature for 15 minutes. Next, 310 μL of a 1 M Tris hydrochloride buffer (pH 9.0) was added for neutralization, and left to stand at room temperature for 3 hours. After the standing, 1.2 mL of a 50 mM Tris hydrochloride buffer (pH 8.0) was added, and centrifuged (at 15,000 rpm for one minute). Thereafter, 2.5 mL of its supernatant was injected into a desalting column PD-10 (Sephadex G-25 filled product, GE Healthcare Inc.) equilibrated with a 50 mM Tris hydrochloride buffer (pH 8) for the elusion with 3.0 mL of a 50 mM Tris hydrochloride buffer (pH 8.0) to separate non-encapsulated peptides and ferritin. A whole amount (3.0 mL) of the resulting solution was concentrated to 0.1 mL by centrifugal ultrafiltration using Vivaspin 20-100K (GE Healthcare Inc.). The operation of adding 10 mL of a 50 mM Tris hydrochloride buffer to the concentrated solution and then concentrating was repeated twice to remove peptides that were not removed by PD-10 to obtain 0.1 mL of a sample solution. For the LC-MS analysis, 50 p1 of a 1 M glycine hydrochloride buffer (pH 2.3) was added to 50 μL of the sample solution and then the resulting solution was left to stand at room temperature for 15 minutes. To the solution, 900 μL of ethanol was added. Next, the resulting solution was stirred vigorously and then centrifuged (at 15,000 rpm for five minutes) for collection of the supernatant. The supernatant was analyzed using LCMS-2020 (Shimadzu Corporation) as LC-MS, Inertsil (Registered trademark) as a column, ODS-3, particle diameter of 2 μm and 2.1 mm×50 mm (GL science). Thereafter, 10 μL of the sample injected into the column was eluded at a flow rate of 0.2 mL/min for 10 minutes such that a mixing ratio of a solution A (0.1% formic acid/99.9% acetonitrile) and a solution B (50% water/50% acetonitrile) is from 95:5 to 95:5.
The encapsulation of the peptide into ferritin was studied by comparing in terms of the amount of the peptide detected by LC/MS between the sample prepared by encapsulating the peptide into ferritin at the disassembly/reassembly process and the sample prepared simply by mixing ferritin with the peptide. For example, ClAc-FHC was eluted at a retention time of 0.8 minute. […] However, the peak was not observed for the sample prepared by simply mixing the peptide with ferritin without performing the disassembly/reassembly process (FIG. 12B). FIG. 13 to FIG. 17 illustrate LC-MS results for FTH in which the peptide was encapsulated at the disassembly/reassembly process.

[3] = target: T2, ferritin (FTL) (Homo sapiens, UniProt P02792); test: Encapsulation of fluorescent dye-modified peptide into FTL, column chromatography with absorbance at 480 nm; conditions: absorbance at 480 nm at the position of the FTL peak
T2 construct: made in house; host or cells: Escherichia coli BL21 (DE3), plasmid pET20-FTL
Description: 0.5 mL of a 50 mM glycine hydrochloride buffer (pH 2.3) that contains FTL (chemical formula weight 480,466) at a final concentration of 5 mg/mL and the peptide at a final concentration of 0.5 mM, was left to stand at room temperature for 15 minutes. Next, 50 μL of a 1 M Tris hydrochloride buffer (pH 9.0) was added for neutralization, and the resulting solution was left to stand at room temperature for 3 hours. After the standing, the resulting solution was centrifuged (at 15,000 rpm for one minute). Then, the supernatant was collected and diluted with a 10 mM Tris hydrochloride buffer (pH 8) up to 3 mL in volume. The resulting solution was injected into the HiPrep 26/60 Sephacryl S-300 HR column (GE Healthcare Inc.) equilibrated with D-PBS (-) (Fujifilm Wako Pure Chemical Corporation) to separate and purify 24-mer FTL by size at a flow rate of 1.3 mL/minute. The purified ferritin was analyzed using a HIPrep 16/60 Sephacryl S-300 HR column (GE Healthcare Inc.) equilibrated with PBS at a flow rate of 0.5 mL/minute.

[4] = system: SKBR-3 cell; test: Cell incorporation observed with two-photon excitation fluorescence microscope; format: cell-based, human; conditions: 24 hours, same conditions as FACS test

T1 sequence (P02794 whole entry): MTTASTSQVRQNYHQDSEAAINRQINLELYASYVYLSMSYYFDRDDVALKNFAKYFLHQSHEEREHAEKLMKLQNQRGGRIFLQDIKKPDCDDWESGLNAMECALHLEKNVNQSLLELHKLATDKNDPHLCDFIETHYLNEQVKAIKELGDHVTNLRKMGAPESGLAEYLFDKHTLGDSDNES
T2 sequence (P02792 whole entry): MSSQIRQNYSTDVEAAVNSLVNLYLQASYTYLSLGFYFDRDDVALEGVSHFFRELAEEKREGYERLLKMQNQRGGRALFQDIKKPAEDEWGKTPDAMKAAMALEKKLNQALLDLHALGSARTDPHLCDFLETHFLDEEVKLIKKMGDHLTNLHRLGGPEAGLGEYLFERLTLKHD

5(6)-FAM-RFARKGALRQKNVHEVKN (SEQ ID NO: 9) ({5(6)‑FAM}-RFARKGALRQKNVHEVKN) [PKC-F, fluorescent dye fluorescein (FAM)-modified peptide, linear]
molecules of peptide encapsulated in one molecule of ferritin on average ([1]; FTH, from molar ratio): 8.5 molecules
encapsulation of peptide in FTH ([1]; absorbance at 480 nm at elution position of 24-mer FTH, LC-MS): encapsulated by the ferritin encapsulation operation without being decomposed
encapsulation [2]: A (“A” represents peptides with three times of confirmation of encapsulation.)
encapsulation of peptide in FTL [3]: encapsulated in FTL
incorporation into cells, fluorescence at the interior of cells [4]: not confirmed
